Reference: patent US20210255185A1

Experiments:
[1] = biological target: methyl cytosine binding protein 2 (MeCP2); assay: immunofluorescence, cells transduced with AAV9-MECP2 at MOI 37500, well 1 (background level)
[2] = biological target: human survival motor neuron (SMN1) protein (human) (UniProt Q16637); assay: immunofluorescence, cells transduced with AAV9-SMN1 at MOI 18750, well 1
[3] = biological target: human survival motor neuron (SMN1) protein (human) (UniProt Q16637); assay: immunofluorescence, cells transduced with AAV9-SMN1 at MOI 75000, well 1
[4] = biological target: human survival motor neuron (SMN1) protein (human) (UniProt Q16637); assay: immunofluorescence, cells transduced with AAV9-SMN1 at MOI 150000, well 1
[5] = biological target: human survival motor neuron (SMN1) protein (human) (UniProt Q16637); assay: immunofluorescence, cells transduced with AAV9-SMN1 at MOI 75000, well 2
[6] = biological target: methyl cytosine binding protein 2 (MeCP2); assay: immunofluorescence, cells transduced with AAV9-MECP2 at MOI 75000, well 1 (background level)
[7] = biological target: human survival motor neuron (SMN1) protein (human) (UniProt Q16637); assay: immunofluorescence, fixed/permeabilised mTD-NPC-delta7 cells transduced with AAV9-SMN1 at MOI 300000, well 2
[8] = biological target: methyl cytosine binding protein 2 (MeCP2); assay: immunofluorescence, cells transduced with AAV9-MECP2 at MOI 150000, well 1 (background level)
[9] = biological target: human survival motor neuron (SMN1) protein (human) (UniProt Q16637); assay: immunofluorescence, cells transduced with AAV9-SMN1 at MOI 18750, well 2
[10] = biological target: methyl cytosine binding protein 2 (MeCP2); assay: immunofluorescence, cells transduced with AAV9-MECP2 at MOI 18750, well 1 (background level)
[11] = biological target: human survival motor neuron (SMN1) protein (human) (UniProt Q16637); assay: immunofluorescence, fixed/permeabilised mTD-NPC-delta7 cells transduced with AAV9-SMN1 at MOI 300000, well 1
[12] = biological target: human survival motor neuron (SMN1) protein (human) (UniProt Q16637); assay: immunofluorescence, cells transduced with AAV9-SMN1 at MOI 37500, well 1
[13] = biological target: human survival motor neuron (SMN1) protein (human) (UniProt Q16637); assay: immunofluorescence, cells transduced with AAV9-SMN1 at MOI 37500, well 2
[14] = biological target: methyl cytosine binding protein 2 (MeCP2); assay: immunofluorescence, cells transduced with AAV9-MECP2 at MOI 18750, well 2 (background level)
[15] = biological target: methyl cytosine binding protein 2 (MeCP2); assay: immunofluorescence, cells transduced with AAV9-MECP2 at MOI 300000, well 1 (background level)
[16] = biological target: human survival motor neuron (SMN1) protein (human) (UniProt Q16637); assay: immunofluorescence, cells transduced with AAV9-SMN1 at MOI 150000, well 2
[17] = biological target: methyl cytosine binding protein 2 (MeCP2); assay: immunofluorescence, cells transduced with AAV9-MECP2 at MOI 150000, well 2 (background level)
[18] = biological target: methyl cytosine binding protein 2 (MeCP2); assay: immunofluorescence, cells transduced with AAV9-MECP2 at MOI 75000, well 2 (background level)
[19] = biological target: methyl cytosine binding protein 2 (MeCP2); assay: immunofluorescence, cells transduced with AAV9-MECP2 at MOI 37500, well 2 (background level)
[20] = biological target: methyl cytosine binding protein 2 (MeCP2); assay: immunofluorescence, cells transduced with AAV9-MECP2 at MOI 300000, well 2 (background level)

UniProt Q16637, sequence (Q16637 2-294 limits assumed): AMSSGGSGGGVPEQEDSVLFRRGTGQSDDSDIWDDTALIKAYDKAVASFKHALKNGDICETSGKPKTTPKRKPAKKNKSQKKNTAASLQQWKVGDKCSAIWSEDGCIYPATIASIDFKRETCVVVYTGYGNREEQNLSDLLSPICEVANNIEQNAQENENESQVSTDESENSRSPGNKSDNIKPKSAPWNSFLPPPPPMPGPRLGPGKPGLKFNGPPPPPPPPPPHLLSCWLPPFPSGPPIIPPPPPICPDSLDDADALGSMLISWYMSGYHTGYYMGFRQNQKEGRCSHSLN

IFI-C (integrated fluorescent intensity per cell) [1]: 809000
IFI-C (integrated fluorescent intensity per cell) [6]: 837000
IFI-C (integrated fluorescent intensity per cell) [8]: 886000
IFI-C (integrated fluorescent intensity per cell) [10]: 720000
IFI-C (integrated fluorescent intensity per cell) [14]: 759000
IFI-C (integrated fluorescent intensity per cell) [15]: 867000
IFI-C (integrated fluorescent intensity per cell) [17]: 839000
IFI-C (integrated fluorescent intensity per cell) [18]: 860000
IFI-C (integrated fluorescent intensity per cell) [19]: 817000
IFI-C (integrated fluorescent intensity per cell) [20]: 875000
Substance: mouse monoclonal anti-SMN antibody (Clone 2B1)
IFI-C (integrated fluorescent intensity per cell) [2]: 1.46e+06
IFI-C (integrated fluorescent intensity per cell) [3]: 2.34e+06
IFI-C (integrated fluorescent intensity per cell) [4]: 2.87e+06
IFI-C (integrated fluorescent intensity per cell) [5]: 2.46e+06
IFI-C (integrated fluorescent intensity per cell) [7]: 3.27e+06
IFI-C (integrated fluorescent intensity per cell) [9]: 1.51e+06
IFI-C (integrated fluorescent intensity per cell) [11]: 3.43e+06
IFI-C (integrated fluorescent intensity per cell) [12]: 1.87e+06
IFI-C (integrated fluorescent intensity per cell) [13]: 1.86e+06
IFI-C (integrated fluorescent intensity per cell) [16]: 3.02e+06
